One block for each substance: values may come before it.
Experiments:
[1] = target: CopR (PF0739), copper-sensing transcriptional regulator of Pyrococcus furiosus (Pyrococcus furiosus); assay: SEC; Superdex 200 10/300 GL in low salt buffer (40 mM HEPES pH 7.5, 80 mM ammonium sulfate, 1 mM EDTA, 10% glycerol); elution compared to standard calibration proteins
[2] = target: CopRΔTRASH (PF0739 variant lacking the metal-sensing TRASH domain) (Pyrococcus furiosus); assay: negative-stain transmission electron microscopy with 2D class averaging; 220 ng/μl protein, 2% uranyl acetate with 0.005% DDM; more than 50,000 particles classified in RELION 3.0; in the absence and presence of a DNA template
[3] = target: T1, CopRΔTRASH internal_change (Pyrococcus furiosus) (UniProt Q8U2U0); assay: EMSA; conditions: EMSA: 20 nM DNA, 40 mM HEPES pH 7.4, 80 mM (NH4)2SO4, 670 uM DTT, 20 ug/ml BSA, 6.7% glycerol, 50 ng HindIII-digested lambda DNA, 5 min 70 C; DNase I: 4.4 nM …
T1 sequence: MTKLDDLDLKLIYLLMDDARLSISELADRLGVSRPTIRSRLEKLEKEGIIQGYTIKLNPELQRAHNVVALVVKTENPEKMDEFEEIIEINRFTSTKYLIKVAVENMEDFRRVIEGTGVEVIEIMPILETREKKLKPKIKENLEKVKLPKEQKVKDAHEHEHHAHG

[4] = target: T2, CopR (Pyrococcus furiosus) (UniProt Q8U2U0); assay: EMSA; conditions: EMSA: 20 nM DNA, 40 mM HEPES pH 7.4, 80 mM (NH4)2SO4, 670 uM DTT, 20 ug/ml BSA, 6.7% glycerol, 50 ng HindIII-digested lambda DNA, 5 min 70 C; DNase I: 4.4 nM …
T2 sequence: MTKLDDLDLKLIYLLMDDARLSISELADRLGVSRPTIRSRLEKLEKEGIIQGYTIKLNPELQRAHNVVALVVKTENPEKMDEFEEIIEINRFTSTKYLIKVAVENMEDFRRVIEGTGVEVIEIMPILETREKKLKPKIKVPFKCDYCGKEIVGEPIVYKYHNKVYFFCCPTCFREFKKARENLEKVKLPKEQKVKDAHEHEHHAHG

[5] = target: T3, CopRΔHIS (Pyrococcus furiosus) (UniProt Q8U2U0); assay: EMSA; conditions: EMSA: 20 nM DNA, 40 mM HEPES pH 7.4, 80 mM (NH4)2SO4, 670 uM DTT, 20 ug/ml BSA, 6.7% glycerol, 50 ng HindIII-digested lambda DNA, 5 min 70 C; DNase I: 4.4 nM …
T3 sequence: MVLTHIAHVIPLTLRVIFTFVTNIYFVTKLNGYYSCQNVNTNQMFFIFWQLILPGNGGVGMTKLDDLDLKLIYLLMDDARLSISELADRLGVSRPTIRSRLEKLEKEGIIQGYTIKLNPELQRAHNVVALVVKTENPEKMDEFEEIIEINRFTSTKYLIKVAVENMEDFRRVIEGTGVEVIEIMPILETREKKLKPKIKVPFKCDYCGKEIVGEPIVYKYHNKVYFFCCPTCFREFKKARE

[6] = target: T4, CopRΔHISΔTRASH (Pyrococcus furiosus) (UniProt Q8U2U0); assay: EMSA; conditions: EMSA: 20 nM DNA, 40 mM HEPES pH 7.4, 80 mM (NH4)2SO4, 670 uM DTT, 20 ug/ml BSA, 6.7% glycerol, 50 ng HindIII-digested lambda DNA, 5 min 70 C; DNase I: 4.4 nM …
T4 sequence: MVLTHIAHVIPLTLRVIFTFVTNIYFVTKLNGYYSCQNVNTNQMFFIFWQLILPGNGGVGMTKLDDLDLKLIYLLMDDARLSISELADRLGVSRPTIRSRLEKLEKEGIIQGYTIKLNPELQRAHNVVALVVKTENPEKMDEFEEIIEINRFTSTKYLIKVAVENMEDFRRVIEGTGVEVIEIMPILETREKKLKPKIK

[7] = target: T2, CopR (Pyrococcus furiosus); assay: DNase I footprinting; conditions: EMSA: 20 nM DNA, 40 mM HEPES pH 7.4, 80 mM (NH4)2SO4, 670 uM DTT, 20 ug/ml BSA, 6.7% glycerol, 50 ng HindIII-digested lambda DNA, 5 min 70 C; DNase I: 4.4 nM …
[8] = target: T5, TBP;TFB (Pyrococcus furiosus?;Pyrococcus furiosus?) (UniProt P62000+P61998); assay: DNase I footprinting; conditions: EMSA: 20 nM DNA, 40 mM HEPES pH 7.4, 80 mM (NH4)2SO4, 670 uM DTT, 20 ug/ml BSA, 6.7% glycerol, 50 ng HindIII-digested lambda DNA, 5 min 70 C; DNase I: 4.4 nM …
T5 sequence 1: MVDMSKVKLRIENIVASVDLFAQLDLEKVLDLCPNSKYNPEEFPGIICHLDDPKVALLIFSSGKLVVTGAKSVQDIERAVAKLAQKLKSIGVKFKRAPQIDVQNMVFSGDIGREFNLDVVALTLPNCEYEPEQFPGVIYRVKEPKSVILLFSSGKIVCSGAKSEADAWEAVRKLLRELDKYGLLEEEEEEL
T5 sequence 2: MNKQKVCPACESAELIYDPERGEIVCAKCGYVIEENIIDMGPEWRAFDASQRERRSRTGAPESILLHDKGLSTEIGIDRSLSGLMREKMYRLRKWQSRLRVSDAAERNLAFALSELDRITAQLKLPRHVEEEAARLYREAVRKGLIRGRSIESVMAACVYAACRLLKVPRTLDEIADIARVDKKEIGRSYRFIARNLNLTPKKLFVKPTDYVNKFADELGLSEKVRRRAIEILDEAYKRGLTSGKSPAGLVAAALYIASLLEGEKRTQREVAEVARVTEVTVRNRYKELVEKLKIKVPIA

stoichiometry N [1]: 8
Substance: CopR (PF0739), copper-sensing transcriptional regulator of Pyrococcus furiosus (natural protein)

stoichiometry N [2]: 8
Substance: CopRΔTRASH (PF0739 variant lacking the metal-sensing TRASH domain) (natural protein)

Substance: GAGTGATCTTCACTTTCGTCACCAATATTTACTTTGTGACGAAACTTAATGGGTATTATTCATGCCAAAATGTAAACACTAACCAAATGTTTTTTATATTTTGGCAACTAATACTCCCAGGGAATGGGGGTGTTGGAATGACCAAGTTAGATG (double strand) [copR/copA intergenic promoter region (EMSA)]
binding [3]: binds
binding [4]: binds
binding [5]: binds
binding [6]: binds

Substance: GAGTGATCTTCACTTTCGTCACCAATATTTACTTTGTGACGAAACTTAATGGGTATTATTCATGCCAAAATGTAAACACTAACCAAATGTTTTTTATATTTTGGCAACTAATACTCCCAGGGAATGGGGGTGTTGGAATGACCAAGTTAGATG (double strand) [copR/copA promoter region (DNase I footprint)]
binding [7]: binds
binding [8]: binds
